In paper PMC2914249, “Structure and Reactivity of Bacillus subtilis MenD Catalyzing the First Committed Step in Menaquinone Biosynthesis” (Journal of Molecular Biology, 2010):

Assays:
[1] = substrate: C=C(O[C@H]1C=CC=C(C(=O)O)[C@@H]1O)C(=O)O; assay: purified protein; format: biochemical, Bacillus subtilis; details: 50 mM Tris-HCl pH 7.8, 20 mM NaCl, 5 mM MgSO4, 23 °C, co-substrate α-ketoglutarate
[2] = substrate: O=C(O)CCC(=O)C(=O)O; assay: purified protein; format: biochemical, Bacillus subtilis; details: 50 mM Tris-HCl pH 7.8, 20 mM NaCl, 5 mM MgSO4, 23 °C, co-substrate isochorismate

Protein | Km [1] | kcat [1] | kcat/Km [1] | Km [2] | kcat [2] | kcat/Km [2]
BsMenD (MenD, SEPHCHC synthase, EC 2.2.1.9) (Bacillus subtilis subsp. subtilis str. 168; I489A) (protein, full length (Thr2-Leu580 seen in crystal); N-terminal hexa-His tag with TEV site kept (24 extra residues); E. coli BL21(DE3); dimer peak used (tetramer in crystal); active site formed by two subunits) MTVNPITHYIGSFIDEFALSGITDAVVCPGSRSTPLAVLCAAHPDISVHVQIDERSAGFFALGLAKAKQRPVLLICTSGTAAANFYPAVVEAHYSRVPIIVLTADRPHELREVGAPQAINQHFLFGNFVKFFTDSALPEESPQMLRYIRTLASRAAGEAQKRPMGPVHVNVPLREPLMPDLSDEPFGRMRTGRHVSVKTGTQSVDRESLSDVAEMLAEAEKGMIVCGELHSDADKENIIALSKALQYPILADPLSNLRNGVHDKSTVIDAYDSFLKDDELKRKLRPDVVIRFGPMPVSKPVFLWLKDDPTIQQIVIDEDGGWRDPTQASAHMIHCNASVFAEEIMAGLTAATRSSEWLEKWQFVNGRFREHLQTISSEDVSFEGNLYRILQHLVPENSSLFVGNSMPIRDVDTFFEKQDRPFRIYSNRGANGIDGVVSSAMGVCEGTKAPVTLVIGDLSFYHDLNGLLAAKKLGIPLTVILVNNDGGGAFSFLPQASEKTHFEDLFGTPTGLDFKHAAALYGGTYSCPASWDEFKTAYAPQADKPGLHLIEIKTDRQSRVQLHRDMLNEAVREVKKQWEL | 27 ± 1 µM | 0.095 ± 0.00333 s⁻¹ | 3500 ± 167 M⁻¹ s⁻¹ | 346 ± 10 µM |  | 
BsMenD (MenD, SEPHCHC synthase, EC 2.2.1.9) (Bacillus subtilis subsp. subtilis str. 168; R409A) (protein, full length (Thr2-Leu580 seen in crystal); N-terminal hexa-His tag with TEV site kept (24 extra residues); E. coli BL21(DE3); dimer peak used (tetramer in crystal); active site formed by two subunits) MTVNPITHYIGSFIDEFALSGITDAVVCPGSRSTPLAVLCAAHPDISVHVQIDERSAGFFALGLAKAKQRPVLLICTSGTAAANFYPAVVEAHYSRVPIIVLTADRPHELREVGAPQAINQHFLFGNFVKFFTDSALPEESPQMLRYIRTLASRAAGEAQKRPMGPVHVNVPLREPLMPDLSDEPFGRMRTGRHVSVKTGTQSVDRESLSDVAEMLAEAEKGMIVCGELHSDADKENIIALSKALQYPILADPLSNLRNGVHDKSTVIDAYDSFLKDDELKRKLRPDVVIRFGPMPVSKPVFLWLKDDPTIQQIVIDEDGGWRDPTQASAHMIHCNASVFAEEIMAGLTAATRSSEWLEKWQFVNGRFREHLQTISSEDVSFEGNLYRILQHLVPENSSLFVGNSMPIADVDTFFEKQDRPFRIYSNRGANGIDGVVSSAMGVCEGTKAPVTLVIGDLSFYHDLNGLLAAKKLGIPLTVILVNNDGGGIFSFLPQASEKTHFEDLFGTPTGLDFKHAAALYGGTYSCPASWDEFKTAYAPQADKPGLHLIEIKTDRQSRVQLHRDMLNEAVREVKKQWEL | 8.5 ± 1.2 µM | 0.0233 ± 0.00167 s⁻¹ | 2670 ± 333 M⁻¹ s⁻¹ | 159 ± 18 µM |  | 
BsMenD (MenD, SEPHCHC synthase, EC 2.2.1.9) (Bacillus subtilis subsp. subtilis str. 168) (protein, full length (Thr2-Leu580 seen in crystal); N-terminal hexa-His tag with TEV site kept (24 extra residues); E. coli BL21(DE3); dimer peak used (tetramer in crystal); active site formed by two subunits) MTVNPITHYIGSFIDEFALSGITDAVVCPGSRSTPLAVLCAAHPDISVHVQIDERSAGFFALGLAKAKQRPVLLICTSGTAAANFYPAVVEAHYSRVPIIVLTADRPHELREVGAPQAINQHFLFGNFVKFFTDSALPEESPQMLRYIRTLASRAAGEAQKRPMGPVHVNVPLREPLMPDLSDEPFGRMRTGRHVSVKTGTQSVDRESLSDVAEMLAEAEKGMIVCGELHSDADKENIIALSKALQYPILADPLSNLRNGVHDKSTVIDAYDSFLKDDELKRKLRPDVVIRFGPMPVSKPVFLWLKDDPTIQQIVIDEDGGWRDPTQASAHMIHCNASVFAEEIMAGLTAATRSSEWLEKWQFVNGRFREHLQTISSEDVSFEGNLYRILQHLVPENSSLFVGNSMPIRDVDTFFEKQDRPFRIYSNRGANGIDGVVSSAMGVCEGTKAPVTLVIGDLSFYHDLNGLLAAKKLGIPLTVILVNNDGGGIFSFLPQASEKTHFEDLFGTPTGLDFKHAAALYGGTYSCPASWDEFKTAYAPQADKPGLHLIEIKTDRQSRVQLHRDMLNEAVREVKKQWEL | 1.1 ± 0.2 µM | 0.317 ± 0.0167 s⁻¹ | 317000 ± 50000 M⁻¹ s⁻¹ | 22 ± 5 µM | 0.233 ± 0.0333 s⁻¹ | 10700 ± 5000 M⁻¹ s⁻¹
BsMenD (MenD, SEPHCHC synthase, EC 2.2.1.9) (Bacillus subtilis subsp. subtilis str. 168; R428A) (protein, full length (Thr2-Leu580 seen in crystal); N-terminal hexa-His tag with TEV site kept (24 extra residues); E. coli BL21(DE3); dimer peak used (tetramer in crystal); active site formed by two subunits) MTVNPITHYIGSFIDEFALSGITDAVVCPGSRSTPLAVLCAAHPDISVHVQIDERSAGFFALGLAKAKQRPVLLICTSGTAAANFYPAVVEAHYSRVPIIVLTADRPHELREVGAPQAINQHFLFGNFVKFFTDSALPEESPQMLRYIRTLASRAAGEAQKRPMGPVHVNVPLREPLMPDLSDEPFGRMRTGRHVSVKTGTQSVDRESLSDVAEMLAEAEKGMIVCGELHSDADKENIIALSKALQYPILADPLSNLRNGVHDKSTVIDAYDSFLKDDELKRKLRPDVVIRFGPMPVSKPVFLWLKDDPTIQQIVIDEDGGWRDPTQASAHMIHCNASVFAEEIMAGLTAATRSSEWLEKWQFVNGRFREHLQTISSEDVSFEGNLYRILQHLVPENSSLFVGNSMPIRDVDTFFEKQDRPFRIYSNAGANGIDGVVSSAMGVCEGTKAPVTLVIGDLSFYHDLNGLLAAKKLGIPLTVILVNNDGGGIFSFLPQASEKTHFEDLFGTPTGLDFKHAAALYGGTYSCPASWDEFKTAYAPQADKPGLHLIEIKTDRQSRVQLHRDMLNEAVREVKKQWEL |  |  |  | 514 ± 54 µM | 0.0567 ± 0.00333 s⁻¹ | 117 ± 16.7 M⁻¹ s⁻¹
